Laboratory results as given in US20230340111A1 (published 2023).

Experiments:
[1] = target: human FOLR1 recombinant protein (extracellular domain of human folate receptor alpha) (human) (UniProt P15328); assay: ELISA; coated recombinant protein, HA-tagged VHH in bacterial extract, anti-HA detection; A405 antigen well / blank well
[2] = target: T1, human folate receptor gamma (FOLR3), recombinant (human, UniProt P41439 23-245, limits assumed); assay: ELISA, coated recombinant protein, HA-tagged VHH in bacterial extract
T1 construct: extracellular domain; Bought protein; also called human FOLR3
Experimental: (§1) The day before, 0.1 µg recombinant protein at a concentration of 1 µg/mL in 100 mM NaHCO3, pH 8.2 was coated in a 96-well ELISA plate (Nunc MaxiSorp). Per VHH clone also a blank coated well was foreseen (only buffer). The wells were overcoated with protein-free T20 (PBS) blocking buffer (Pierce). After washing with PBS, pH7.4, 0.05% Tween, VHH-containing bacterial extract was added to every well. Binding of HA-tagged VHHs was detected by using mouse anti-HA.11 epitope tag (clone 16B12, Biolegend) as the primary Ab and goat anti-mouse IgG (whole molecule) alkaline phosphatase conjugate (Sigma-Aldrich) as the secondary Ab, with thorough washing with PBS, pH 7.4, 0.05% Tween in between. Signals were developed using phosphatase substrate (Sigma-Aldrich) in AP blot buffer (100 mM NaCl, 50 mM MgCl2, 100 mM Tris, pH 9.5). The absorbance was determined at 405 nm using an absorbance microplate reader (Molecular Devices). Per clone the ratio was determined between the absorbance in the antigen-coated well versus the well without antigen.

[3] = target: T2, murine FOLR1, extracellular domain, recombinant (murine, UniProt P35846 25-232); assay: as above
T2 construct: extracellular domain; Bought protein; also called mouse FOLR1
Experimental: as §1

[4] = target: T3, human folate receptor beta (FOLR2), extracellular domain, recombinant (human, UniProt P14207 17-228, limits assumed); assay: as above
T3 construct: extracellular domain; Bought protein; also called human FOLR2
Experimental: as §1

[5] = target: T1, human folate receptor gamma (FOLR3), …; assay: ELISA; coated recombinant protein, HA-tagged VHH in bacterial extract, anti-HA detection; A405 antigen well / blank well
Experimental: as §1

[6] = target: T2, murine FOLR1, extracellular domain, …; assay: as above
Experimental: as §1

[7] = target: T3, human folate receptor beta (FOLR2), …; assay: as above
Experimental: as §1

[8] = target: T4, human FOLR1 recombinant protein (extracellular domain of human folate receptor alpha) (human, UniProt P15328 25-233); assay: SPR (Biacore T200), human FOLR1 immobilized on CM5, His6-tagged VHH as analyte, 1:1 fit
T4 construct: Bought recombinant protein (Sino Biological); also called hFOLR1; FR-alpha
Experimental: The kinetic parameters of antigen binding by purified VHHs were determined via surface plasmon resonance with a Biacore T200 instrument (GE Healthcare). The human FOLR1 recombinant protein (Sino Biological) was immobilized in 10 mM sodium acetate, pH 5.5 on a CM5 chip (GE Healthcare) via amine coupling chemistry to 500 RU. His₆-tagged VHHs were analyzed in a twofold serial dilution in HBS (125 nM-0.488 nM for VHHs A4 and A5; 10 nM-0.039 nM for VHHs A1, A2 and A3) with an analyte flow rate of 30 µl/min. The association phase took 180 s (A4-A5) or 450 s (A1-A3) and the dissociation phase 600 s (A4-A5) or 900 s (A1-A3). Regeneration was done by a single injection of 50 mM glycine-HCl, pH 2.5, 2 M MgCl₂ for 30 s at 30 µl/min, followed by 120 s stabilization. Binding curves were fitted using a ‘1:1 (antigen:analyte)’ binding model in Biacore T200 evaluation software.

[9] = target: T4, human FOLR1 recombinant protein …; assay: SPR dual injection on immobilized human FOLR1, 250 nM; competitor (1st VHH, saturating) A5; by the legend the value is of the 2nd VHH
Experimental: (§2) Competitive binding characteristics of His₆-tagged VHHs were determined via surface plasmon resonance with a Biacore T200 instrument (GE Healthcare). Immobilization of human FOLR1 recombinant protein (Sino Biological) and regeneration were performed as described below for kinetic measurements.
(§3) Table 8: Side-by-side comparison of His₆-tagged VHHs A1, A2, A3, A4, A5 for binding to human FOLR1 to identify competitive binding characteristics. Binding was measured in surface plasmon resonance with immobilized human FOLR1 recombinant protein as the ligand. After saturation of the ligand with VHH 1 an equimolar mixture of VHH 1 and VHH 2 was injected. Percentages express the loss in response level of VHH 2, relative to the response when VHH 2 was injected alone.

[10] = target: T4, human FOLR1 recombinant protein …; assay: SPR dual injection on immobilized human FOLR1, 250 nM; competitor (1st VHH, saturating) A2; by the legend the value is of the 2nd VHH
Experimental: as §2, §3

[11] = target: T4, human FOLR1 recombinant protein …; assay: SPR dual injection on immobilized human FOLR1, 250 nM; competitor (1st VHH, saturating) A1; by the legend the value is of the 2nd VHH
Experimental: as §2, §3

[12] = target: T4, human FOLR1 recombinant protein …; assay: SPR dual injection on immobilized human FOLR1, 250 nM; competitor (1st VHH, saturating) A3; by the legend the value is of the 2nd VHH
Experimental: as §2, §3

[13] = target: T5, human FOLR1 expressed on SKOV-3 ovarian carcinoma cells (human, UniProt P15328 25-234); assay: saturation binding of 131I-labelled untagged VHH on SKOV-3 cells
T5 construct: Naturally expressed receptor on SKOV-3 cells; also called human FOLR1pos SKOV-3 cancer cells; human FOLR1-expressing cell line SKOV-3

[14] = target: T5, human FOLR1 expressed on SKOV-3 ovarian …; assay: cellular retention on SKOV-3 cells: 10 nM 131I-VHH 1 h at 4 C, then up to 24 h at 37 C; membrane-bound plus internalized fraction
Experimental: The in vitro cellular retention of the different His₆- and untagged ¹³¹I-labeled VHHs was assessed on the same cancer cells. In this particular case, human FOLR1^pos SKOV-3 cancer cells were incubated with 10 nM ¹³¹I-labelled VHHs for 1h at 4° C., after which the unbound fraction was collected. A 100-fold excess of the corresponding unlabeled VHH to assess non-specific binding. Next, the cells were incubated with fresh medium up to 24 h at 37° C., after which the dissociated fraction was collected. Afterwards, the cells were washed with 0.05 M glycine pH 2.8 to collect the membrane-bound fraction. Finally, cells were solubilized with 1 M NaOH at room temperature to collect the internalized fraction. The sum of the membrane-bound and internalized fractions corresponds to the total cell-associated fraction.

[15] = target: T4, human FOLR1 recombinant protein …; assay: SPR dual injection on immobilized human FOLR1, 250 nM; competitor (1st VHH, saturating) A4; by the legend the value is of the 2nd VHH
Experimental: as §2, §3

[16] = target: T4, human FOLR1 recombinant protein …; assay: SPR (Biacore T200), single cycle kinetics, His6-tagged VHH immobilized on CM5, human FOLR1 as analyte, 1:1 fit
Experimental: The kinetic parameters of antigen binding for purified VHHs A1, A2 and A3 were determined via surface plasmon resonance with a Biacore T200 instrument (GE Healthcare) using single cycle kinetics mode. While example 4d provides a first and preferred way of assessing the kinetic parameters of antigen binding for VHHs using surface plasmon resonance, this example provides an alternative setup for using surface plasmon resonance to assess the kinetic parameters of antigen binding, inverting the analyte and immobilized ligand. His₆-tagged VHH A1, A2 or A3 was immobilized in 10 mM sodium acetate, pH 5.5 on a CM5 chip (GE Healthcare) via amine coupling chemistry to 160 RU. The human FOLR1 recombinant protein (Sino Biological) was analyzed in a threefold serial dilution in HBS (38.5 nM-0.47 nM) with an analyte flow rate of 30 µl/min. The association phase took 180 s for every concentration and the dissociation phase 900 s. Regeneration was done by a single injection of 50 mM glycine-HCl, pH 2.5, 2 M MgCl2 for 30 s at 30 µl/min, followed by 120 s stabilization. Binding curves were fitted using a ‘1:1 (antigen:analyte)’ binding model in Biacore T200 evaluation software.

T4 sequence (P15328 25-233): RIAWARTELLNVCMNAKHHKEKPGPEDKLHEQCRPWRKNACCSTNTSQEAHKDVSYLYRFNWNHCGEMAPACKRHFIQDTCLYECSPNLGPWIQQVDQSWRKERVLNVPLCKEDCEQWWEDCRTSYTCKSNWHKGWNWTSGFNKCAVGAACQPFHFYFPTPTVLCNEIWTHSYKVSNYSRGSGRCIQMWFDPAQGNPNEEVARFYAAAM
T1 sequence (P41439 23-245 limits assumed): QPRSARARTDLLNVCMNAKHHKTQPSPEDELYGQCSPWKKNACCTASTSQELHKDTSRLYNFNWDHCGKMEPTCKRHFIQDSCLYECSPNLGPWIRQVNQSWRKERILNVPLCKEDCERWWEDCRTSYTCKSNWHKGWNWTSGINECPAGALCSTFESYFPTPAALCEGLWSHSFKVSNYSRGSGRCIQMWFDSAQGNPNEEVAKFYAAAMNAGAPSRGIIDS
T3 sequence (P14207 17-228 limits assumed): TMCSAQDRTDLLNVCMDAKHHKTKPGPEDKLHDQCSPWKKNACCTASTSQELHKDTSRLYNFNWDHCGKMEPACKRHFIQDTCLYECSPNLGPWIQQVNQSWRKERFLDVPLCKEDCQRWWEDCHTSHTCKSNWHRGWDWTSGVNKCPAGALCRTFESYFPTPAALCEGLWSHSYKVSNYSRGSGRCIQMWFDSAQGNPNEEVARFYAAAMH
T2 sequence (P35846 25-232 limits assumed): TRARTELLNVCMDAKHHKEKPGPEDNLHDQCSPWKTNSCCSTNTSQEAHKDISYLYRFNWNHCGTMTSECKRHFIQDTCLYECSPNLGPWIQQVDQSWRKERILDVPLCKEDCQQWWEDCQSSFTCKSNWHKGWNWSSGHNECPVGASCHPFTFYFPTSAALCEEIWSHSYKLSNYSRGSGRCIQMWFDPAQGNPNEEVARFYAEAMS
T5 sequence (P15328 25-234 limits assumed): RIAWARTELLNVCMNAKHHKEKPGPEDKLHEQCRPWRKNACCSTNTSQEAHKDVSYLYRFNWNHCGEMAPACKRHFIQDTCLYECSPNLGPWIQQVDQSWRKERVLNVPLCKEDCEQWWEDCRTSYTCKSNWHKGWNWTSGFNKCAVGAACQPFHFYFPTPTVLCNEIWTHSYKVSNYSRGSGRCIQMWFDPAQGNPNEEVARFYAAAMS
Sequence of human FOLR1 recombinant protein (extracellular domain of human folate receptor alpha) (human) (P15328 25-233): as the sequence (P15328 25-233) above

Binder	signal-to-background ratio [1]	binding result [2]	binding result [3]	binding result [4]	signal-to-background ratio [5]	signal-to-background ratio [6]	signal-to-background ratio [7]	Kd [8]	koff [8]	kon [8]	loss in response level of VHH 2 relative to VHH 2 injected alone [9]	loss in response level of VHH 2 relative to VHH 2 injected alone [10]	loss in response level of VHH 2 relative to VHH 2 injected alone [11]	loss in response level of VHH 2 relative to VHH 2 injected alone [12]	loss in response level of VHH 2 relative to VHH 2 injected alone [15]	also measured
HA-tagged variant of VHH A4 (VHH, Used as VHH-containing bacterial (periplasmic) extract in ELISA; also called A4 HA-tag) VHH: QVQLQESGGGLARAGGSLRLSCAASGRAFSSTYAMGWFRQAPGKEREFVADINWSEGSPMYIDSVKDRFTISRDNARNSLYLQMNSLKSEDTAVYYCAARRFGQGYEYWGQGTQVTVSS	> 20	no binding	no binding	no binding	~1	~1	~1	–	–	–	–	–	–	–	–	–
HA-tagged variant of VHH A5 (VHH, Used as VHH-containing bacterial (periplasmic) extract in ELISA; also called A5 HA-tag) VHH: QVQLQESGGGLVQAGGSLRLSCGVSGNIFSMNLMGWYRQPPGKEREWVALITKDGSTNYEDSVKGRFTISRDNAKNTVSLQMNSLKPEDTAVYYCNAQDGSGWIRAWGWDWGQGTQVTVSS	> 20	no binding	no binding	no binding	~1	~1	~1	–	–	–	–	–	–	–	–	–
131I-labeled untagged VHH A3 (VHH, [131I]SGMIB conjugated to lysine side-chain amine groups) VHH: DVQLVESGGGLVQAGGSLRLSCGVSGNMFSMNLMGWYRQPPGKERDWVAVITKDGSTNYADSVKGRFTISRDNAKNTVSLQMNSLKPEDTAVYYCNVQDGSGWIRAWGWDWGQGTQVTVSS	–	–	–	–	–	–	–	–	–	–	–	–	–	–	–	EC50 [13]: 5.8 nM; cell-associated fraction of initial bound activity after 24 h [14]: 15%
His6-tagged variant of VHH A1 (VHH, Purified, unlabelled; also called A1 His6-tag) VHH: DVQLVESGGGLVQPGGSLRLSCAASESIFSRNHMSWYRQAPGKQRELAAIITSDGNTNYPDSVKGRFTISRDNAKNTVYLQMNSLKPEDTAVYYCNTFGRSVAGFYDYWGQGTQVTVSS	–	–	–	–	–	–	–	0.04 nM	0.00014 s⁻¹	3.6e+06 M⁻¹ s⁻¹	-91%	-98%	–	-100%	-98%	Kd [16]: 0.44 nM; koff [16]: 0.00019 s⁻¹; kon [16]: 430000 M⁻¹ s⁻¹

Second part, led by results:

signal-to-background ratio [1]	binding result [2]	binding result [3]	binding result [4]	signal-to-background ratio [5]	signal-to-background ratio [6]	signal-to-background ratio [7]	Kd [8]	koff [8]	kon [8]	loss in response level of VHH 2 relative to VHH 2 injected alone [9]	loss in response level of VHH 2 relative to VHH 2 injected alone [10]	loss in response level of VHH 2 relative to VHH 2 injected alone [11]	loss in response level of VHH 2 relative to VHH 2 injected alone [12]	loss in response level of VHH 2 relative to VHH 2 injected alone [15]	Binder	also measured
–	–	–	–	–	–	–	4.3 nM	0.0057 s⁻¹	1.3e+06 M⁻¹ s⁻¹	-91%	-99%	-97%	-100%	–	His6-tagged variant of VHH A4 (VHH, Purified, unlabelled; also called A4 His6-tag) VHH: DVQLVESGGGLARAGGSLRLSCAASGRAFSSTYAMGWFRQAPGKEREFVADINWSEGSPMYIDSVKDRFTISRDNARNSLYLQMNSLKSEDTAVYYCAARRFGQGYEYWGQGTQVTVSS	–
–	–	–	–	–	–	–	14 nM	0.018 s⁻¹	1.3e+06 M⁻¹ s⁻¹	–	-99%	-96%	-100%	-98%	His6-tagged variant of VHH A5 (VHH, Purified, unlabelled; also called A5 His6-tag) VHH: DVQLVESGGGLVQAGGSLRLSCGVSGNIFSMNLMGWYRQPPGKEREWVALITKDGSTNYEDSVKGRFTISRDNAKNTVSLQMNSLKPEDTAVYYCNAQDGSGWIRAWGWDWGQGTQVTVSS	–
